Bridges are numbered along the chain shown (N, C = ends). Where no end group is shown, it is not given here.

The target in experiment [1] is T1, A isoform of the insulin receptor (UniProt P06213-2 28-1370, limits assumed).
T1 construct: isoform A lacks exon 11; also called IR-A
The experiment in a line: competitive displacement of radiolabelled tracer, receptor on microtiter plates coated with AU5 IgG. Here is the method:
The assay employed the A isoform of the insulin receptor. […] The protocol for assay of receptor-binding activities was as follows. Microtiter strip plates (Nunc Maxisorb) were incubated overnight at 4° C. with AU5 IgG (100 μl/well of 40 mg/ml in phosphate-buffered saline). Binding data were analyzed by a two-site sequential model.

In experiment [2] the target is T2, Type 1 IGF-I receptor (UniProt P08069 31-1367, limits assumed).
T2 construct: also called IGF-1R; Type 1 insulin-like growth factor receptor
The experiment in a line: competitive receptor-binding assay, against wild-type human insulin as reference.

B1: SCI-57DP (ligand)
chain: FVNQHLCGSHLVEALYLVCGERGFFYTDPTEEGPRRGIVEQCCHSICSLEQLENYCN
modifications: disulfide 19-56, 42-47, 7-43
notes: Made in Pichia pastoris; the cleaved product has 57 residues with native disulfide bridges; also called SCI-2; Thermalin-biphasic
With B1, in experiment [1], the Kd was found to be 0.06 nM. Also, the “fold lower affinity than wild-type human insulin” value in experiment [2] was 5 fold.

B2: SCI-57PE (ligand)
chain: FVNQHLCGSHLVEALYLVCGERGFFYTPETEEGPRRGIVEQCCHSICSLEQLENYCN
modifications: disulfide 19-56, 42-47, 7-43
notes: Made in Pichia pastoris; the cleaved product has 57 residues with native disulfide bridges; also called SCI-1; Thermalin-biphasic
Molecule B2 returned a dissociation constant (Kd) in experiment [1] of 0.08 nM. This counts as picomolar.

Values taken from US20180265560A1 (CASE WESTERN RESERVE UNIVERSITY, published 2018).
